In patent publication US20260250737A1, “Engineered Luciferases and Luciferin Substrates” (Monod Bio, Inc., priority 2023, published 2026):
Like-named read-outs stand apart in the source and are kept apart here.

Assays:
LuxSit = type: biochemical; conditions: inclusion in assay buffer at pH8
Protocol: Assay buffers that increase and stabilize the signal output of luciferase assay were tested. Inclusion of Imidazole increased the brightness of LuxSit at pH8.
In-well concentrations were 185 pM of enzyme and 10 μM DTZ. […] In-well concentrations of DTZ was 10 μM.

[1] = test system: MBIO-301-derived split enzyme; test: Bioluminescence emission of synthetic luciferin substrates with MBIO-301-derived split enzyme (FRB:FKBP, rapamycin); type: biochemical; conditions: 1 nM MBIO-557, 1 nM MBIO-563, 10 μM Substrate, 100 nM Rapamycin
Protocol: The MBIO-301 enzyme was split into two components: MBIO-557 (Small portion) and MBIO-563 (Large portion). • MBIO-557 has the following sequence: NRVDEVRVYINGSGS (SEQ ID NO:2735) • MBIO-563 has the following sequence:
Bioluminescence emission of synthetic luciferin substrates was measured. The luciferin substrates were incubated with MBIO-301-derived split enzyme. The two-component MBIO-301 split luciferase enzyme was fused to the rapamycin inducible FRB:FKBP system and incubated with its complementary part at a 1:1 ratio. Each of the molecules was incubated with 1×PBS, 0.5% Propylene Glycol, 0.05% Anti-foam, 100 mM Imidazole, 10 mM Ascorbic Acid buffer, 100 nM Rapamycin and emission signal was measured using a Synergy H1 plate reader.
In-well concentrations: 1 nM MBIO-557 (EGFP-FRB-Small portion), 1 nM MBIO-563 (EGFP-FKBP-Large portion), 10 μM Substrate, 100 nM Rapamycin.

[2] = Luciferase activity of circularly permuted LuxSit-i variants; type: biochemical; conditions: circularly permuted proteins; 5 nM protein, 10 μM DTZ
Protocol: FIG. 6A provides kinetic profile over one hour of circularly permuted LuxSit-i variants. Variants were diluted in PBS and combined 1:1 with DTZ substrate, resulting in final in-well concentrations of 5 nM protein/variant and 10 μM DTZ.
Variants were diluted in PBS and combined 1:1 with DTZ substrate, resulting in final in-well concentrations of 5 nM protein and 10 μM DTZ.

LgLux_4039 [3] = biological target: T1, LgLux_4039; test: cell-based or functional assay
T1 chain: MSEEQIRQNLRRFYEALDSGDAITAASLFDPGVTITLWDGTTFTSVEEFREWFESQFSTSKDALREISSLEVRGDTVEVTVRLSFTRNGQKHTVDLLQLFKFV

MBIO-5335 = biological target: T2, MBIO-5335; test: cell-based or functional assay
T2 chain: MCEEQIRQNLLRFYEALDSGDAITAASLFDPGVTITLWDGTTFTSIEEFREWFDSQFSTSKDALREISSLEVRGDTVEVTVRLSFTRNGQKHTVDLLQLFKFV

MBIO-5341 = biological target: T3, MBIO-5341; test: cell-based or functional assay
T3 chain: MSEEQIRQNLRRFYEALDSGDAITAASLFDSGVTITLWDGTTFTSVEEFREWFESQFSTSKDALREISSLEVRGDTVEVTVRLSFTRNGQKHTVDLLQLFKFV

[4] = biological target: T4, LgLux_4039 variant S19C (SEQ ID NO:2805); test: cell-based or functional assay
T4 chain: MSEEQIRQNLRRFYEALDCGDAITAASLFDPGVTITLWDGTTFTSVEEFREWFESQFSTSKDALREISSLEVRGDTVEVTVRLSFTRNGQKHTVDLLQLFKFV

LgLux_4039 [5] = biological target: T1, LgLux_4039; test: cell-based or functional assay
MBIO-5342 = biological target: T5, MBIO-5342; test: cell-based or functional assay
T5 chain: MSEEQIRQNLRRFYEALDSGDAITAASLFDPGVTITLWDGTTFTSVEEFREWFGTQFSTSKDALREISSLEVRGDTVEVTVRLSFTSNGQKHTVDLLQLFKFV

MBIO-5339 = biological target: T6, MBIO-5339; test: cell-based or functional assay
T6 chain: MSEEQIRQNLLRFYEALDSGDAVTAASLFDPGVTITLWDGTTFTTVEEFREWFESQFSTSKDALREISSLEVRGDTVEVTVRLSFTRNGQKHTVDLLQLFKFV

MBIO-5336 = biological target: T7, MBIO-5336; test: cell-based or functional assay
T7 chain: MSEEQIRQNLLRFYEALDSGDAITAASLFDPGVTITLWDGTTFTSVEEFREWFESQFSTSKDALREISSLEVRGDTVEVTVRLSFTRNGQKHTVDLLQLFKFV

MBIO-5338 = biological target: T8, MBIO-5338; test: cell-based or functional assay
T8 chain: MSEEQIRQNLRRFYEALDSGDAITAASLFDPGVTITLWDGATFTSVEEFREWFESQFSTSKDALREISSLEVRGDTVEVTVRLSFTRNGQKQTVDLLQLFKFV

MBIO-5337 = biological target: T9, MBIO-5337; test: cell-based or functional assay
T9 chain: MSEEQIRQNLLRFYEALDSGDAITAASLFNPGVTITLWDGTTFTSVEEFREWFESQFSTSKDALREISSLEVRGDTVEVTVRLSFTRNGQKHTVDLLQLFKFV

MBIO-5340 = biological target: T10, MBIO-5340; test: cell-based or functional assay
T10 chain: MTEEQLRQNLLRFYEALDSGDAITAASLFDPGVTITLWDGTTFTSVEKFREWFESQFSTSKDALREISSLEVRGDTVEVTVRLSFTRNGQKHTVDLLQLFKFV

Molecule: c1c[nH]cn1 [Imidazole]
- brightness of LuxSit (LuxSit): increased

Molecule: O=c1c(Cc2ccccc2)nc2c(-c3ccccc3)[nH]c(-c3ccccc3)cn1-2 [DTZ, Diphenylterazine, reference compound]
- Fold Change with Rapamycin Addition at Initial Read [1]: 58.4

Molecule: O=c1c(Cc2ccccc2)nc2c(-c3ccc(F)cc3)[nH]c(-c3ccccc3)cn1-2 [2d]
- Fold Change with Rapamycin Addition at Initial Read [1]: 46.2

B1: SEQ ID NO 2227: circularly permuted protein from MBIO-148, inpaint length 32 (protein)
chain: GQKHVVVLVHTFRFRGNRVTEVEVEIIPCPSLDEASIAAAIAEAEALAAERLAELGAPPPSISEEQIRQFLRRFYEALDSGDADTAASLFHPGVTIHLWDGVTFTSREEFREWFERLFSTSKDAWREIVSLRVVGDTVVVVVVLHFTLN
- luciferase activity compared to SEQ ID NO:2600 [2]: similar

Molecule: RVVAVRVYVNPTG [SmLux_4039]
- Baseline Signal (Normalized by expression) (LgLux_4039 [3]): 123000
- Fold change upon Rap addition (LgLux_4039 [3]): 1.5 fold
- Baseline Signal (Normalized by expression) (MBIO-5335): 23800
- Fold change upon Rap addition (MBIO-5335): 1.9 fold
- Baseline Signal (Normalized by expression) (MBIO-5341): 10400
- Fold change upon Rap addition (MBIO-5341): 2.2 fold
- Baseline Signal (Normalized by expression) [4]: 3670
- Fold change upon Rap addition [4]: 2 fold
- Baseline Signal (Normalized by expression) (LgLux_4039 [5]): 22100
- Fold change upon Rap addition (LgLux_4039 [5]): 1.9 fold
- Baseline Signal (Normalized by expression) (MBIO-5342): 3360
- Fold change upon Rap addition (MBIO-5342): 2 fold
- Baseline Signal (Normalized by expression) (MBIO-5339): 28300
- Fold change upon Rap addition (MBIO-5339): 1.9 fold
- Baseline Signal (Normalized by expression) (MBIO-5336): 16400
- Fold change upon Rap addition (MBIO-5336): 2.1 fold
- Baseline Signal (Normalized by expression) (MBIO-5338): 18900
- Fold change upon Rap addition (MBIO-5338): 2.2 fold
- Baseline Signal (Normalized by expression) (MBIO-5337): 14900
- Fold change upon Rap addition (MBIO-5337): 2.1 fold
- Baseline Signal (Normalized by expression) (MBIO-5340): 6670
- Fold change upon Rap addition (MBIO-5340): 2.2 fold

B2: SEQ ID NO 2236: circularly permuted protein from MBIO-148, inpaint length 32 (protein)
chain: GQKHVVVLVHTFRFRGNRVTEVRVEIIPAPSLDEESIEARVAEARRLAEERLAELGDPPPSISEEQIRQFLRRFYEALDSGDADTAASLFHPGVTIHLWDGVTFTSREEFREWFERLFSTSKDAWREIVELRVRGDTVVVVVVLHFTLN
- luciferase activity compared to SEQ ID NO:2600 [2]: similar
